Residue numbers refer to the chain shown, from its start. Numbers in names are those of the source.
B1: α3-4b (protein)
chain: MSPEHCSPHHTALRQAILCWGELMNLATWVGSNLEDPASRELVVSYVNVNMGLKIRQLLWFHISCLTFG
B2: α1-4a (protein)
chain: MDIDPYKEFGASVELLSFLPSDFFPSIRDLLDTASALYREALESPEHCSPHHTALRQAILCWGELMNLATWVGSNLEDPASRELVVSYVNV
B3: α2-4b (protein)
chain: MFLPSDFFPSIRDLLDTASALYREALESPEHCSPHHTALRQAILCWGELMNLATWVGSNLEDPASRELVVSYVNVNMGLKIRQLLWFHISCLTFG
B4: HR-RDBD (protein)
chain: MGRETVLEYLVSFGVWIRTPPAYRPPNAPILSTLPETTVVRRRGRSPRRRTPSPRRRRSQSPRRRRSQSRESQC
B5: ΔHBc(α1-4b)-F23A (protein)
chain: MDIDPYKEFGASVELLSFLPSDAFPSIRDLLDTASALYREALESPEHCSPHHTALRQAILCWGELMNLATWVGSNLEDPASRELVVSYVNVNMGLKIRQLLWFHISCLTFG
B6: ΔHBc(α1-4b)-L42A (protein)
chain: B5 chain with A23F, L42A

Assays:
Type in all cases: cell-based, hepatitis B virus
[1] = tested on: HBV replication by HBc-T33N; test: system for evaluating HBV replication activity in HeLa cells with HBc-T33N in place of HBc-WT; details: GLS4 0.08 to 5 μM, FIG. 13
Procedure: The T residue at position 33 was substituted with an N residue (denoted as T33N) by a site-directed mutagenesis method using PrimeSTAR Mutagenesis Basal Kit (Takara Bio Inc.) using the full length HBc expression vector (pCI-HBc) of genotype C used in Example 1 as the template. The T33N mutant of the full length HBc having introduced the point mutation is denoted as HBc-T33N.
The measurement of the HBV replication activity by HBc-WT or HBc-T33N was performed in accordance with the method described in Example 1 using HBc-WT or HBc-T33N as HBc comprised in the system for evaluating HBV replication described in Example 1 in the presence of GLS4 at a concentration of 0 μM, 0.08 μM, 0.16 μM, 0.31 μM, 0.63 μM, 1.25 μM, 2.5 μM, or 5 μM. Based on the obtained measurement value of HBV replication activity (amount of reverse transcribed HBV DNA), the efficiency for inhibition of HBV replication (%) was calculated.
The evaluation of the inhibitory effect on HBV replication of the spike region ΔHBc(α1-4b) was in accordance with the method described in Example 2. However, in this Example, HBc-WT or HBc-T33N was used as the HBc comprised in the system for evaluating HBV replication described in Example 2.

HBV replication [2] = test: system for evaluating HBV replication activity (reporter (−) DNA quantitative PCR) in HeLa cells, with wild type HBc; details: GLS4 0.08 to 5 μM, HBc-WT in the system; FIG. 13
HBV replication [3] = test: as above; details: for inhibitory effect on HBV replication: pCI-HBc:pCI-ΔHBc = 9:26, 24 hours culture, amount of reporter (−) DNA vs positive control (empty vector), FIG. 7, 9, 11A; for inhibitory activity on HBV replication compared to wild type pCI-ΔHBc(α1-4b): single ratio as in Example 1, FIG. 11A
Source text: The effect of each of the aforementioned ΔHBc expression vector (pCI-ΔHBc) on HBV replication was examined using the system for evaluating HBV replication activity described in WO2018/030534 developed by the present inventors.
Specifically, the system for evaluating HBV replication activity consisting of the vector for evaluating HBV replication activity (pBB-intron) encoding the reporter pgRNA shown in FIG. 5A, the HBV-P expression vector (pCI—HBV-Pol) shown in FIG. 5B, the HBc expression vector (pCI-HBc) shown in FIG. 5C, and the HBx expression vector (pCI-HBx) shown in FIG. 5D was introduced into HeLa cells together with each pCI-ΔHBc. The introduction ratio of the respective expression vectors was pBB-intron: pCI-HBc: pCI—HBV-Pol: pCI-HBx: pCI-ΔHBc=13:9:3:1:26. According to this ratio, the amount of ΔHBc is about three times (2.89 times) as much as that of the wild type HBc functioning in HBV replication. As a positive control, an empty vector (pCI) was introduced at the same ratio as pCI-ΔHBc. For gene introduction into HeLa cells, the electroporation method was used. Using an Electroporator Nepa21 (Nepa Gene Co., Ltd.) 10 μg of DNA was introduced into approximately 1×10^6 cells under the condition of 125 V/2.5 ms pulse length. The HeLa cells after gene introduction were cultured in DMEM to which 2 mL of 10% FBS was added in the presence of 5% CO2 at 37° C. for 24 hours.
When the vector for evaluating HBV replication activity (pBB-intron) described above is introduced into HeLa cells, pre-mRNA shown in FIG. 6A is synthesized by RNA-pol II in HeLa cells, then an intron comprised in the reporter sequence of pBB-intron is immediately removed by pre-mRNA splicing in HeLa cells. […] The amount of this reporter (−) DNA reflects the replication activity and replication amount of HBV. Therefore, when DNA is extracted from the cells in which the system for evaluating HBV replication activity and pCI-ΔHBc are introduced, the amount thereof is quantified with a primer set specific to the reporter (−) DNA, and then compared with the amount of the positive control, the effect of pCI-ΔHBc on the HBV replication can be evaluated.
DNA was extracted from HeLa cells after culture using DNeasy Mini (Qiagen N.V.). Then, quantitative PCR was performed using a primer set specific to the reporter (−) DNA after reverse transcription. For primers, a forward primer (Primer F) consisting of the base sequence shown in SEQ ID NO: 23, and a reverse primer (Primer R) consisting of the base sequence shown in SEQ ID NO: 24 were used. […] Therefore, it functions as a primer only when there is a reporter (−) DNA having the reporter sequence from which the intron has been removed, and the DNA fragment of 131 bases is amplified.
The basic procedures were in accordance with Example 1. As pCI-ΔHBc to be introduced into HeLa cells together with the system for evaluating HBV replication activity, only pCI-ΔHBc(α1-4b) was used. The introduction ratio of the respective expression vectors was set such that the ratio of pCI-HBc: pCI—HBV-Pol: pCI-HBx was 9:3:1, and the ratio of pBB-intron: pCI-HBc/pCI—HBV-Pol/pCI-HBx was 1:1. Then, only the system for evaluating HBV replication activity in which the ratio of pCI-ΔHBc(α1-4b): pBB-intron/pCI-HBc/pCI—HBV-Pol/pCI-HBx was adjusted to 1:26, 3:26, 9:26, or 26:26, was introduced as a positive control. In each sample, an empty vector (pCI) was used for adjustment so that the amount of the vector to be introduced is the same.

full length HBc = test: Western blotting under non-reducing conditions of HBc dimer and multimer formation in HeLa cells; details: PA-tagged ΔHBc coexpressed with full length HBc in HeLa cells, antibody #511; FIG. 12A
Procedure: Each of the expression vectors of the wild type full length HBc (HBc-WT), and mutant full length HBc (HBc-F23A and HBc-L42A) was introduced into HeLa cells, which were cultured for 24 hours. Then proteins were extracted with a WB lysis buffer (1% Triton, 25 mM Tris pH 7.4, 150 mM NaCl). After addition of CuSO4 (100 μM), the protein extract was incubated at room temperature for 20 min, and neutralized with 1 mM EDTA, to which α13-ME-free SDS-PAGE sample buffer was added. Then SDS-PAGE was performed using a 10 to 20% polyacrylamide gel (SuperSep™ Ace, FUJIFILM Wako Pure Chemical Corporation). After the electrophoresis, the proteins were transferred to a PVDF membrane using a semi-dry blotter, and Western blotting was performed using a mouse anti-human HBc monoclonal antibody (#511).
The basic procedures were in accordance with the method described in Example 4. pCI-ΔHBc(α1-4b)-PA alone, or pCI-ΔHBc(α1-4b)-PA and pCI-ΔHBc(α1-4b)-F23A-PA at a ratio of 1:1 were introduced into HeLa cells.

Row | Molecule | inhibitory effect on HBV replication (HBV replication [3]; HeLa cells) | also measured
1 | CCOC(=O)C1=C(CN2CCOCC2)NC(c2nccs2)=NC1c1ccc(F)cc1Br (stereo not drawn) [GLS4] | – | inhibitory effect on HBV replication by HBc-T33N (efficiency of inhibition) [1]: did not exhibit inhibitory effect on HBV replication by HBc-T33N; inhibitory effect on HBV replication by HBc-WT (efficiency of inhibition) (HBV replication [2]): inhibited HBV replication by HBc-WT in a concentration-dependent manner
2 | α1-2b (MDIDPYKEFGASVELLSFLPSDFFPSIRDLLDTASALYREALESPEHCS) | inhibitory activity on HBV replication was lost | –
3 | α4ab (MSNLEDPASRELVVSYVNVNMGLKIRQLLWFHISCLTFG) | inhibitory activity on HBV replication was lost | –
4 | B1 | inhibitory activity on HBV replication was lost | –
5 | B2 | inhibitory activity on HBV replication was lost | –
6 | B3 | inhibitory activity on HBV replication was lost | –
7 | B4 | did not show the inhibitory activity on HBV replication | –
8 | B5 | inhibitory effect on HBV replication activity was maintained | effect on multimer formation of the full length HBc (full length HBc): inhibited the normal multimer formation of the full length HBc; dose-dependent inhibition of HBV replication (HBV replication [3]; HeLa cells, HBc-WT, ΔHBc/WT-HBc expression vector ratio 1/9, 3/9, 9/9, 26/9, FIG. 8, 11B, 14 left): inhibited HBV replication depending on its expression level; inhibitory activity on HBV replication compared to wild type pCI-ΔHBc(α1-4b) (HBV replication [3]; HeLa cells): more strongly inhibited than in the cells having introduced the wild type pCI-ΔHBc(α1-4b); inhibitory activity on HBV replication compared to ΔHBc(α1-4b), dose series (HBV replication [3]; plasmids serially diluted with empty vector as in Example 2, FIG. 11B): stronger inhibitory activity on HBV replication than ΔHBc(α1-4b)
9 | B6 | inhibitory effect on HBV replication activity was maintained | inhibitory activity on HBV replication compared to wild type pCI-ΔHBc(α1-4b) (HBV replication [3]; HeLa cells): reduced compared to the wild type pCI-ΔHBc(α1-4b)
